Laboratory results from patent publication US20250170257A1 (NANOLATTIX BIOTECHNOLOGY, published 2025).

Experiments:
tissue factor [1] = biological target: T1, tissue factor (UniProt P13726 33-251, limits assumed); assay: SPR (Biacore S200), same method, tissue factor as analyte 12.5-200 nM; parent antibody before modification; tissue factor 12.5-200 nM
T1 construct: also called TF; antigen tissue factor
Description: (§1) The humanized anti-tissue factor antibody was coupled to the 2nd channel on the surface of the CM5 chip via amino groups, the 1st and the 3rd channels were used as reference channels, the tissue factor flew through the chip surface as the analyte (mobile phase). […] The Kinetics/Affinity program of Bicore S200 was run to measure the affinity.

tissue factor [2] = biological target: T1, tissue factor; assay: SPR (Biacore S200), antibody amine-coupled on CM5 chip, tissue factor as analyte 1.125-18 nM; MAb01
Description: as §1

tissue factor [3] = biological target: T1, tissue factor; assay: SPR (Biacore S200), antibody amine-coupled on CM5 chip, tissue factor as analyte 1.125-18 nM; MAb02
Description: as §1

T1 sequence (P13726 33-251 limits assumed): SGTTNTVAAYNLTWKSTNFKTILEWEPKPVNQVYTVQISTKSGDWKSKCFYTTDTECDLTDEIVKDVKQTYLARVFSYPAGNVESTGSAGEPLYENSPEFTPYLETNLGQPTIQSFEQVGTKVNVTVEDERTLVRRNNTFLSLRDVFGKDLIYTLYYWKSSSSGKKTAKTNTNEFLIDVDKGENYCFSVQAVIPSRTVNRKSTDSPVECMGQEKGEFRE

B1: humanized antibody against tissue factor before modification (CN 107446047A) (antibody, V domains shown)
VH: EVQLQQSGPELVKPGASVKVSCKASGYTFTHFNVYWVRQSPGKGLEWIGYIDPDNGITFYDENFMGKATLTVDKSSSTAYMQLNSLTSEDSAVYYCARDVTTAVDFWGQGTTLTVSS
VL: DIQMTQSPSSLSASVGDRVTITCLATQTLDTWLAWYQQKPGKAPQLLIYAATYLADGVPSRFSGSGSGTDFTFTISSLQPEDFATYYCQLVYSSPSTFGQGTKLEIK
notes: also called humanized antibody before modified
B1 was tested, and the Kd (tissue factor [1]) was 33.7 nM.

B2: humanized anti-tissue factor antibody MAb01 (antibody, V domains shown)
VH: QIQLVQSGPELVKPGASVQVSCKTSGYSFTDYNVYWVRQSPAKGIEWIGYIDPYNGLTIYEQNFRGKGTLSLDHSTSTAYMELNSLRYEDTAVYFCARDVTTALDFWGQGTSVTVSS
VL: DIQMTQSPASISASIGERVTITCLASQTIDTWLAWFLQKPGRSPNLLIYAATNLADGVPYRFSASGSGNDFSLTISSLNPEDVATYYCQQVYSSPFTFGQGNKLEIRR
For B2, the Kd (tissue factor [2]) was 0.357 nM.

B3: humanized anti-tissue factor antibody MAb02 (antibody, V domains shown)
VH: QIQLVQSGPEVVKPGASVRVSCKGSGYSFTDYNIYWVRQSPAKGLEWIGYIDPYNGLTIYDQNFRAKATLSVDHSTSNAYMEINSLRYEDTAVYFCARDVTSALEFWGQGTSVTVSS
VL: DIQMTQSPASISASVGERVTITCLGSQTIDTYLAWYLQKPGRSPQLLIYAATQLADGVPSRFSASGSGTDFSLTISSLQPEDVATYYCQNVYSSPFTFGQGNKLEIKR
notes: Full heavy chain (449 aa) and light chain (214 aa), expressed in CHO-dhfr- cells
B3 was tested, and the Kd (tissue factor [3]) was 1 nM.
